Data: the supplement of paper PMC10567573

B1: KLHL12 (parent)
chain: REESLPNLLQYVRMPLLTPRYITD

Variants of: B1
Assay: protein stability index of a GFP-peptide fusion (GPS, HEK-293T) (PSI 1-6); higher = more stable
Settings: c terminus: a fixed tail appended
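Also: lentivirally expressed fusions sorted by FACS into six bins by GFP to DsRed ratio, PSI derived from sequencing read proportions per bin multiplied by bin number.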

Q: Which protein stability index does the source give for RQESLPNLLQYVRMPLLTPRYITD [E2Q] here?
A: 2.53

Q: For REESLPNLLQYVRMPLLTPRAITD [Y21A], which protein stability index is on record?
A: 3.59

Q: With REESLPNLLQYVRMPWLTPRYITD [L16W] as the variant, how does the protein stability index read?
A: 1.6

Q: With REEILPNLLQYVRMPLLTPRYITD [S4I] as the variant, how does the protein stability index read?
A: 2.16

Q: Which protein stability index does the source give for RECSLPNLLQYVRMPLLTPRYITD [E3C] here?
A: 2.5

Q: For REESLPNLLQYERMPLLTPRYITD [V12E], which protein stability index is on record?
A: 3.85

Q: For REESLPNLLQYVRMPLLTPRYITS [D24S], which protein stability index is on record?
A: 2.01

Q: For REESLPNLLQYTRMPLLTPRYITD [V12T], which protein stability index is on record?
A: 3.01

Q: Which protein stability index does the source give for REESLPNLLQYVRMPLLDPRYITD [T18D] here?
A: 2.38

Q: Which protein stability index does the source give for RIESLPNLLQYVRMPLLTPRYITD [E2I] here?
A: 2.5

Q: With REESLPNLLQYVRMPLLMPRYITD [T18M] as the variant, how does the protein stability index read?
A: 1.81

Q: For REESLPGLLQYVRMPLLTPRYITD [N7G], which protein stability index is on record?
A: 2.63

Q: With REESLPNLLQYVRMPLLTPRYIMD [T23M] as the variant, how does the protein stability index read?
A: 2.61

Q: Which protein stability index does the source give for REESLPNLLQYVRMPLETPRYITD [L17E] here?
A: 3.45

Q: Which protein stability index does the source give for REESLPNLLQYHRMPLLTPRYITD [V12H] here?
A: 2.74

Q: With REESLPNLLQYVRMPLLTPRYMTD [I22M] as the variant, how does the protein stability index read?
A: 1.94

Q: For REESLPNLLQYVRMPLLIPRYITD [T18I], which protein stability index is on record?
A: 2.17

Q: With REESPPNLLQYVRMPLLTPRYITD [L5P] as the variant, how does the protein stability index read?
A: 2.75

Q: Which protein stability index does the source give for RERSLPNLLQYVRMPLLTPRYITD [E3R] here?
A: 2.83

Q: With NEESLPNLLQYVRMPLLTPRYITD [R1N] as the variant, how does the protein stability index read?
A: 2.72

Q: Which protein stability index does the source give for REESLPNLLQYVRMPLLTPRYITR [D24R] here?
A: 2.75

Q: For REESLPNLLPYVRMPLLTPRYITD [Q10P], which protein stability index is on record?
A: 2.79

Q: With REESLPNKLQYVRMPLLTPRYITD [L8K] as the variant, how does the protein stability index read?
A: 2.98

Q: With REESLPNLLQYVRMPLLTNRYITD [P19N] as the variant, how does the protein stability index read?
A: 2.48

Q: With REESLPNLWQYVRMPLLTPRYITD [L9W] as the variant, how does the protein stability index read?
A: 2.49

Q: For REASLPNLLQYVRMPLLTPRYITD [E3A], which protein stability index is on record?
A: 2.54

Q: Which protein stability index does the source give for REESLPNLLQYVRMPLLTPNYITD [R20N] here?
A: 2.78

Q: Which protein stability index does the source give for REESLPNLLQNVRMPLLTPRYITD [Y11N] here?
A: 3.47

Q: With REESIPNLLQYVRMPLLTPRYITD [L5I] as the variant, how does the protein stability index read?
A: 1.83

Q: With REESLPNLLQYVRMPLLTPRIITD [Y21I] as the variant, how does the protein stability index read?
A: 2.84

Q: With REESLTNLLQYVRMPLLTPRYITD [P6T] as the variant, how does the protein stability index read?
A: 2.13

Q: For REESLPNLLQYVRMPSLTPRYITD [L16S], which protein stability index is on record?
A: 3.56

Q: With REESLPNLLQYVRMSLLTPRYITD [P15S] as the variant, how does the protein stability index read?
A: 3.06

Q: With RVESLPNLLQYVRMPLLTPRYITD [E2V] as the variant, how does the protein stability index read?
A: 2.63

Q: Which protein stability index does the source give for REESLPNLLQYVRMPCLTPRYITD [L16C] here?
A: 2.41

Q: Which protein stability index does the source give for REESLPNLLQYVRMPLLTPRPITD [Y21P] here?
A: 3.15

Q: With REESYPNLLQYVRMPLLTPRYITD [L5Y] as the variant, how does the protein stability index read?
A: 2.61

Q: With REESLPNLLQYVRQPLLTPRYITD [M14Q] as the variant, how does the protein stability index read?
A: 2.88

Q: Which protein stability index does the source give for REESLPELLQYVRMPLLTPRYITD [N7E] here?
A: 2.34

Q: With REESLPNILQYVRMPLLTPRYITD [L8I] as the variant, how does the protein stability index read?
A: 2.41

Q: With REESLPNLLQYVRMPLLTPLYITD [R20L] as the variant, how does the protein stability index read?
A: 2.55

Q: For REESLPNLLCYVRMPLLTPRYITD [Q10C], which protein stability index is on record?
A: 2.39

Q: Which protein stability index does the source give for REESLPNLLQYVRMPLLTQRYITD [P19Q] here?
A: 2.18

Q: Which protein stability index does the source give for REESLPNLLQYVRMPLLTLRYITD [P19L] here?
A: 2.48

Q: With REESLPNLLQYVRMPQLTPRYITD [L16Q] as the variant, how does the protein stability index read?
A: 3.12

Q: Which protein stability index does the source give for REESLPNNLQYVRMPLLTPRYITD [L8N] here?
A: 3.22

Q: For REESLPNLLDYVRMPLLTPRYITD [Q10D], which protein stability index is on record?
A: 2.06

Q: Which protein stability index does the source give for REESLPNLLQYVRMPLLTPRYPTD [I22P] here?
A: 3.71

Q: For REESLPNLLQYVVMPLLTPRYITD [R13V], which protein stability index is on record?
A: 2.66

Q: Which protein stability index does the source give for REESLINLLQYVRMPLLTPRYITD [P6I] here?
A: 1.95

Q: For REESLPNLLQYVQMPLLTPRYITD [R13Q], which protein stability index is on record?
A: 2.31

Q: Which protein stability index does the source give for REESLPNLLMYVRMPLLTPRYITD [Q10M] here?
A: 1.56

Q: For REESLPNLLRYVRMPLLTPRYITD [Q10R], which protein stability index is on record?
A: 3.13

Q: For REESKPNLLQYVRMPLLTPRYITD [L5K], which protein stability index is on record?
A: 2.65

Q: With REPSLPNLLQYVRMPLLTPRYITD [E3P] as the variant, how does the protein stability index read?
A: 2.19

Q: For REESNPNLLQYVRMPLLTPRYITD [L5N], which protein stability index is on record?
A: 2.52

Q: With YEESLPNLLQYVRMPLLTPRYITD [R1Y] as the variant, how does the protein stability index read?
A: 1.82

Q: With REESLPNLLQYVRMPLLTPRYIED [T23E] as the variant, how does the protein stability index read?
A: 2.81

Q: For REESLPNLNQYVRMPLLTPRYITD [L9N], which protein stability index is on record?
A: 3.61

Q: For REESLPNLYQYVRMPLLTPRYITD [L9Y], which protein stability index is on record?
A: 2.62

Q: Which protein stability index does the source give for REESLPNLLQCVRMPLLTPRYITD [Y11C] here?
A: 2.82

Q: With REESLPNLLQYVRMPLLTPRYITA [D24A] as the variant, how does the protein stability index read?
A: 1.84

Q: For REESLPNLLQYVRMPLLTPRCITD [Y21C], which protein stability index is on record?
A: 2.95

Q: With REESLPNLLQYVRMPLLTPRYITK [D24K] as the variant, how does the protein stability index read?
A: 2.64

Q: For REESLPNLLQYVRMPLLTPRYIWD [T23W], which protein stability index is on record?
A: 1.7

Q: With REESLANLLQYVRMPLLTPRYITD [P6A] as the variant, how does the protein stability index read?
A: 2.66

Q: With REESLPNLLNYVRMPLLTPRYITD [Q10N] as the variant, how does the protein stability index read?
A: 2.05

Q: For REESLPNLLQYVKMPLLTPRYITD [R13K], which protein stability index is on record?
A: 2.67

Q: With REESLPNRLQYVRMPLLTPRYITD [L8R] as the variant, how does the protein stability index read?
A: 2.98

Q: With REYSLPNLLQYVRMPLLTPRYITD [E3Y] as the variant, how does the protein stability index read?
A: 1.71

Q: With REESLPNLLQYVRMMLLTPRYITD [P15M] as the variant, how does the protein stability index read?
A: 2.48

Q: Which protein stability index does the source give for QEESLPNLLQYVRMPLLTPRYITD [R1Q] here?
A: 2.31

Q: Which protein stability index does the source give for REESLPNLLQYVRMPLLRPRYITD [T18R] here?
A: 2.67

Q: Which protein stability index does the source give for REESLPNLLQHVRMPLLTPRYITD [Y11H] here?
A: 2.88

Q: Which protein stability index does the source give for REESLPNLLQYVRMPLLTPRYITC [D24C] here?
A: 1.81

Q: Which protein stability index does the source give for REESLPNLLQYVRMPLLFPRYITD [T18F] here?
A: 2.46

Q: For REHSLPNLLQYVRMPLLTPRYITD [E3H], which protein stability index is on record?
A: 2.23

Q: For REFSLPNLLQYVRMPLLTPRYITD [E3F], which protein stability index is on record?
A: 1.95

Q: For REESLPNLLHYVRMPLLTPRYITD [Q10H], which protein stability index is on record?
A: 2.25

Q: With REESLPNLLQYMRMPLLTPRYITD [V12M] as the variant, how does the protein stability index read?
A: 2.33

Q: For REESQPNLLQYVRMPLLTPRYITD [L5Q], which protein stability index is on record?
A: 2.81

Q: For REESLPNLLQYLRMPLLTPRYITD [V12L], which protein stability index is on record?
A: 1.86

Q: Which protein stability index does the source give for REESLPNLLQYVRMPLLTPRSITD [Y21S] here?
A: 3.37

Q: For REESLPNLLQYVRMPVLTPRYITD [L16V], which protein stability index is on record?
A: 3.03

Q: For REESLPNLLQYVRMPLLTPRYCTD [I22C], which protein stability index is on record?
A: 2.55

Q: For REESLSNLLQYVRMPLLTPRYITD [P6S], which protein stability index is on record?
A: 2.31

Q: Which protein stability index does the source give for TEESLPNLLQYVRMPLLTPRYITD [R1T] here?
A: 2.19

Q: Which protein stability index does the source give for REESLPNLLQYVRMPLLTRRYITD [P19R] here?
A: 2.39

Q: For REESLQNLLQYVRMPLLTPRYITD [P6Q], which protein stability index is on record?
A: 1.91

Q: Which protein stability index does the source give for REEVLPNLLQYVRMPLLTPRYITD [S4V] here?
A: 1.82

Q: With REESLPNGLQYVRMPLLTPRYITD [L8G] as the variant, how does the protein stability index read?
A: 2.79

Q: Which protein stability index does the source give for REESLPNLEQYVRMPLLTPRYITD [L9E] here?
A: 3.23

Q: Which protein stability index does the source give for REESLPNLLQYVRMPLLTPRTITD [Y21T] here?
A: 3.26

Q: For REESLPNLLQYVRMPLITPRYITD [L17I], which protein stability index is on record?
A: 2.54
